Experimental findings from patent publication US20260185137A1 (University of Texas, published 2026) are described below.

Series [1] concerns the molecule itself. The series is described as follows: 15N-TROSY HSQC NMR (self-association of the RING domain); sample concentration is not printed on the sheet. As for the experimental part:
NMR spectroscopy. All NMR experiments were performed in 50 mM Sodium Phosphate (pH 7.5), 150 mM NaCl, 1 mM TCEP, 10% (v/v) D₂O, 0.04% (w/v) NaN₃, and the data collected at 298K on a Bruker Avance 700-MHz spectrometer equipped with a cryoprobe. Backbone assignments were carried out using standard TROSY triple resonance NMR experiments (HNCO, HN(CA)CO, HN(CO)CA, HNCA, HNCACB, and HN(CO)CACB). Protein concentrations for each experiment are shown in the corresponding figures or noted in figure legends. The NMR data were processed using NMRPipe and spectra evaluated using NMRFAM-Sparky.

Series [2] deals with the molecule itself. The series is described as follows: sedimentation equilibrium analytical ultracentrifugation, monomer-dimer self-association model.
Method: Analytical Ultracentrifugation. Sedimentation velocity experiments were performed with a Beckman Optima XL-I analytical ultracentrifuge (Beckman Coulter, Indianapolis, IN) equipped with a 4-hole AnTi-60 rotor and 2-channel centerpiece cells. Samples were in a buffer containing 50 mM Tris (pH 7.5), 150 mM NaCl, and 1 mM TCEP. Sedimentation velocity experiments were carried out at 20° C. and data collection performed in the intensity mode at 280 nm. […] All c(S) distributions were calculated with fitted frictional ratios (f/f₀) and meniscus positions were all fitted with a maximum entropy regularization cutoff of 0.95. Sedimentation equilibrium experiments were carried out using six-channel centerpieces, each chamber containing 110 μL samples. Equilibrium experiments were conducted at 20° C. and collection of data performed in the intensity mode at 280 nm and 230 nm. […] Equilibrium distributions were fitted to a monomer-dimer self-association model.

B1: R1-I77R, RING domain construct of rhesus monkey TRIM5alpha with the I77R mutation (enzyme, UniProt Q0PF16 2-90, looked up)
chain: ASGILLNVKEEVTCPICLELLTEPLSLHCGHSFCQACITANHKKSMLYKEGERSCPVCRISYQPENIQPNRHVANRVEKLREVKLSPEE
notes: range 2-90; Tags were removed by TEV protease
Consider B1, for which, in series [1], the binding result is “no binding”.

B2: R1-WT, monomeric RING domain construct of rhesus monkey TRIM5alpha (enzyme, UniProt Q0PF16 2-90, looked up)
chain: ASGILLNVKEEVTCPICLELLTEPLSLHCGHSFCQACITANHKKSMLYKEGERSCPVCRISYQPENIQPNRHVANIVEKLREVKLSPEE
notes: range 2-90; Expressed with N-terminal 6His-GB1-TEV tags that were removed by TEV protease; also called isolated RING monomer
Turning to B2, the dissociation constant Kd in series [2] is about 60 µM.

Usually Kd stands for a measure of binding affinity in units of concentration. The low end stands for a tighter complex, the high end for a looser complex.
